Source: publication PMC7787448, “Development of an orally-administrable tumor vasculature-targeting therapeutic using annexin A1-binding D-peptides” (PLoS ONE, 2021)
“And” between values parts separate entries of the source, which are not always exact repeats. Equal values may be shown once. Each block holds one molecule with its values, some of them ahead of it. Non-standard residues stand in square brackets, D forms with d. Residues, ends and D or L forms follow the SMILES beside them. No end group written: not given here. *: point of attachment. Biotin = O=C1N[C@H]2[C@H](CS[C@H]2CCCCC(=O)*)N1

How the values were obtained:
[1] = biological target: T1, recombinant full-length ANXA1 (Homo sapiens, UniProt P04083); design: method as in PMID 32921792; details: IF7 with ANXA1; cited from earlier work
T1 construct: Recombinant, full-length ANXA1 was expressed using the baculovirus expression system; honeybee melittin signal peptide (N, cleaved yes); His8-tag (N, cleaved yes); made in house; host or cells: Sf9 insect cells (baculovirus), secreted
T1 sequence (P04083 1-346): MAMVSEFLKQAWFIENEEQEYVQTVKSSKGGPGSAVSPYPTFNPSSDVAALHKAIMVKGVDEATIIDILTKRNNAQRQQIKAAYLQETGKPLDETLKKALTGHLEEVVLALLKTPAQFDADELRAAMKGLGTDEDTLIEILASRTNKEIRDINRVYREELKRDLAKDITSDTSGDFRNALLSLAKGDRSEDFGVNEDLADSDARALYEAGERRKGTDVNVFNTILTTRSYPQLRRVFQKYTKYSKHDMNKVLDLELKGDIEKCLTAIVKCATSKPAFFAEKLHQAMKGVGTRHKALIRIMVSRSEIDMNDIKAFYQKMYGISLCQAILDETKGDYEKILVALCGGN

[2] = test system: C6-Luc brain tumor; test: Near infra-red fluorescence whole body imaging of IRDye-conjugated D-peptides in brain tumor-bearing mice; type: in vivo, mouse; details: IRDye 800CW conjugates, tail vein, nude mice with C6-Luc brain tumors, IVIS imaging 15 min to 144 h
[3] = biological target: T2, synthetic human MC16 peptide (ANXA1 N-terminus) (Homo sapiens, UniProt P04083); test: Plate binding assay of biotinylated dTIT7 to MC16-coated wells (streptavidin-peroxidase, A450); details: N-terminal biotinylated dTIT7 added to MC16-coated plastic wells, peroxidase-streptavidin colour reaction, read-out: Kd of dTIT7 bound to WT MC16
T2 construct: chemically synthesized ANXA1 N-terminus (1–15 residues plus a cysteine at 16); purchased Bio-Synthesis (Lewisville, TX); host or cells: chemical synthesis
Method: To assess dTIT7 binding, wells of Sulfhydryl-BIND Surface Maleimide plates (Corning) were coated 20 hours with wild type (WT) and mutant L-MC16 in water at 4°C. After washing with PBS containing 0.02% Tween 20 (PBST), wells were blocked 1 hour with 10% superblock (Thermo) in PBST at room temperature. Biotinylated dTIT7 (10 μg dissolved in 10% superblock in PBST (1 mL) prepared as above was added to each well at 100 μl/well and incubated 30 min at room temperature for. After three PBST washes, 100 μl streptavidin-peroxidase (0.2 μg/ml) in 10% superblock in PBST containing 2% bovine serum albumin was added to each well and incubated 30 min. After three PBST washes, 100 μL of the peroxidase substrate one-step-TMB (Thermo) was added and incubated until the color developed. The reaction was stopped by adding 100 μl 2N sulfuric acid, and absorbance at 450 nm monitored using an ELISA plate reader. […]
Fig 2 Binding of dTIT7 to an ANXA1 N-terminal domain peptide or to full-length ANXA1 protein. […] In A and B, biotinylated dTIT7 peptide (1 μg/mL) was added to each MC16-coated plastic well and binding of peptide to MC16 was detected by a peroxidase-conjugated streptavidin and peroxidase color reaction. […]

[4] = biological target: T3, Annexin A1 (Homo sapiens, UniProt P04083); test: QCM
T3 chain: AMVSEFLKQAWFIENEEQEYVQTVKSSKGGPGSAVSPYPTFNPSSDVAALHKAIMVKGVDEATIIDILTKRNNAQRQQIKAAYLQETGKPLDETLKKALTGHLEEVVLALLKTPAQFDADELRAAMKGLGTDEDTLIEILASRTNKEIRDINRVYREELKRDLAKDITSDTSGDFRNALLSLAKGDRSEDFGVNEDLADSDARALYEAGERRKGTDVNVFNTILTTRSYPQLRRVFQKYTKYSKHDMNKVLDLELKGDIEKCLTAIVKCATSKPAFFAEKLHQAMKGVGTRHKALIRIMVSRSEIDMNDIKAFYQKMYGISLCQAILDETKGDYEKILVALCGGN

[5] = biological target: T4, ANXA1 N-terminal peptide L-MC16 (Homo sapiens); test: plate binding assay (ELISA)
T4 chain: MAMVSEFLKQAWFIEC

Molecule: IFLLWQR (linear all-L peptide; any N-terminal Cys/linker or conjugate left out) [IF7]
Kd [1]: 63.8 nM

Molecule: CSCC[C@@H](N)C(=O)N1CCC[C@@H]1C(=O)N[C@@H](C(=O)N[C@H](CC(C)C)C(=O)N[C@@H](C(=O)N[C@H](Cc1ccccc1)C(=O)N[C@H](CCCNC(=N)N)C(=O)O)[C@H](C)O)[C@H](C)O [dMPT7] (H-[dM][dP][dT][dL][dT][dF][dR]-OH; N-terminus and C-terminus assumed)
Localization of near infra-red fluorescence after intravenous injection [2]: signals in brain, kidney and other organs

Kd [3]: 8.5 nM and 8.56 nM
Molecule: CC[C@@H](C)[C@@H](NC(=O)[C@H](N)[C@H](C)O)C(=O)N[C@@H](C(=O)N[C@H](Cc1c[nH]c2ccccc12)C(=O)N1CCC[C@@H]1C(=O)N[C@@H](C(=O)N[C@H](CCSC)C(=O)O)[C@H](C)O)[C@H](C)O [dTIT7]

Molecule: CC(C)C[C@@H](NC(=O)[C@@H](CC(C)C)NC(=O)[C@@H](CO)NC(=O)[C@H](NC(=O)[C@H]1CCCN1C(=O)[C@H](N)CO)[C@H](C)O)C(=O)N[C@H](Cc1ccccc1)C(=O)O [dSPT7] (H-[dS][dP][dT][dS][dL][dL][dF]-OH; N-terminus and C-terminus assumed)
Localization of near infra-red fluorescence after intravenous injection [2]: signals in brain, kidney and other organs

Molecule: CC(C)C[C@@H](N)C(=O)N[C@H](CC(C)C)C(=O)N[C@H](CO)C(=O)N[C@H](Cc1c[nH]c2ccccc12)C(=O)N1CCC[C@@H]1C(=O)N[C@H](CO)C(=O)N[C@H](C)C(=O)O [dLLS7] (H-[dL][dL][dS][dW][dP][dS][dA]-OH; N-terminus and C-terminus assumed)
Localization of near infra-red fluorescence after intravenous injection [2]: signals in brain, kidney and other organs

Kd [4]: 31.2 nM
Molecule: [dL][dR][dF][dP][dT][dV][dL] [dLRF7]

Kd [5]: 8.5 nM
Molecule: Biotin-[dT][dI][dT][dW][dP][dT][dM]

Kd [4]: 46.6 nM
Molecule: [dT][dI][dT][dW][dP][dT][dM]
